Source: article PMC9090332, “Reconstitution of surface lipoprotein translocation through the Slam translocon” (eLife, 2022)

Target: T1, E. coli Skp with N-terminal 6xHis tag, purified (E. coli, UniProt P0AEU7 21-161)
T1 sequence (looked up): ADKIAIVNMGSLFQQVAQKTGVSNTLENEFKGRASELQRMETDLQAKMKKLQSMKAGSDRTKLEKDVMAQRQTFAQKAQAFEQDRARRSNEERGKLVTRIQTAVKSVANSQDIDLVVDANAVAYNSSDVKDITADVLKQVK
Test: cell-based or functional assay

B1: Moraxella catarrhalis transferrin binding protein B, C-terminal flag-tag (natural protein)
chain: CGGSGGSNPPAPTPIPNASGSGNTGNTGNAGGTDNTANAGNTGGASSGTGSANTPEPKYQDVPTDKNEKEQVSPIQEPAMGYGMALSKINLHNRQDTPLDEKNIITLDGKKQVAEGKKSPLPFSLDVENKLLDGYIAKMDKADKNAIRRRIESENKAKPLSEAELAEKIKEAVRKSYEFQQVMTSLENKIFHSNDGTTKATTRDLQYVDYGYYLANDANYLTVKTDKPKLWNSGPVGGVFYNGSTTAKELPTQDAVKYKGHWDFMTDVANKGNRFSEVKGTRQAGWWYGASSKDEYNRLLTDEKNKPDGYNGEYGHSSEFTVNFKEKKLTGGLFSNLQDSHKQKVTKTKRYDIDANIHGNRFRGSAIASDKEKDSETKHPFTSDAKDRLEGGFYGPKGEELAGKFLTDDNKLFGVFGAKQESKADKTEAILDAYALGAFNKNDANTFTPFTKKQLDNFGNAKKLVLGSTVINLVSTDATKNEFTEDKPKSATNKAGETLMVNDKVSVKTYGYGRNFEYLKFGELSVGGSHSVFLQGERTATTGDKAVPTEGKAKYLGNWVGYITGTGTGKSFNEAQDIADFDIDFKNKTVNGKLTTKGRTDPVFNITGEISGNGWTGKASTAKADAGGYNIDSNGTNKSIVIRDADVTGGFYGPNATEMGGSFTHNTNDSKASVVFGTKRQEEVKP
modifications: lipidated (processed by Lgt, Lsp, and Lnt)
protection of urea-unfolded purified TbpB from proteinase K with Skp (and LolA) added to empty liposomes, against SurA + Slam1 proteoliposomes (3.5% protection): ≤ 10%
